{"source": "paper PMC13438699", "biological_target": "A/Solomon Islands/3/2006 (H1N1) HA (influenza A virus A/Solomon Islands/3/2006 (H1N1))", "experiment": "cryo-EM structure", "data": [{"substance": "A/Solomon Islands/3/2006 (H1N1) HA (natural protein)", "values": [{"measurement": "stoichiometry N", "value": 3}]}]}
